Data from patent publication US8067376B2, “Pharmaceutical compositions for transdermal delivery” (Forhumantech Co., Ltd., priority 2004, dated 2011).
“Also recorded” adds a separate entry of the source. Ends that are not written are not given here.

Columns and labels:
HeCaT cell line = test: Cell proliferation-inhibitory effect by WST-1 assay; assay type: cell-based; details: 0.2, 1.5, 4.4, 13.3 and 40 μM, after 2 days
Description: In this Example, the cell proliferation-inhibitory effect of PTD-MTX was observed by WST-1 assay (Roche Biochemical) in vitro.
To analyze the cell proliferation-inhibitory effect of PTD-MTX, a HeCaT cell line (obtained from the Department of Dermatology, College of Medicine, Chungnam National University, Korea) was used to analyze cell death. For this purpose, […] were inoculated into DMEM medium (10% FCS, antibiotics (GIBCO)) on a 96-well plate and cultured overnight. To the culture medium, MTX alone, PTD-MTX and PTD-ACA-MTX conjugates prepared in Example 1 were added with concentrations of 0.2, 1.5, 4.4, 13.3 and 40 μM respectively. After 2 days, the inhibition of proliferation of the cells was analyzed by the WST-1 assay.
In the WST-1 assay, tetrazolium salt is present in the respiratory chain of mitochondria and cleaved into a formazan dye by succinate-tetrazolium-reductase having activity only for viable cells, and if the number of viable cells increases, the entire activity of mitochondria dehydrogenase in a sample will increase. Since this increase in enzymatic activity induces an increase in the production of formazan dye, the formazan dye will show a linear correlation with the number of metabolically active cells in medium. The absorbance of the dye solution was measured with an ELISA reader to quantify the formazan dye produced by the metabolically active cells so as to observe cell proliferation ability and cell viability.

DBA/1J mice = test: Arthritis animal model (rheumatoid arthritis induced by II-type collagen); assay type: in vivo, mouse
Description: For in vivo verification of the pharmacological effects of the PTD-ACA-MTX conjugate, DBA/1J mice (obtained from Samtako) were injected with e II-type collagen (obtained from Sigma) to induce rheumatoid arthritis. The mice were divided into a group for intraperitoneal (I.P.) injection of the PTD-ACA-MTX conjugate prepared in Example 1, a group for transdermal administration of the PTD-ACA-MTX conjugate prepared in Example 1, and a group for intraperitoneal (I.P.) injection of MTX alone. For the groups for intraperitoneal (I.P.) injection, MTX was injected in a dosage of 0.3 mg/kg for 4 weeks, and for the group for transdermal administration, a cream-type composition consisting of 5 wt %, based on the weight of the composition, of ethanol, 15 wt % of liquid paraffin, 40 wt % of Vaseline, 0.1 wt % of the PTD-ACA-MTX conjugate, 10 wt % of glycerin and 30 wt % of polyethylene glycol was prepared and then applied on rheumatoid arthritis-induced sites four times weekly. After treatment with the drugs, the arthritis index was monitored one time each week, and after 4 weeks, the animals were sacrificed and the IL-4, IL-6, TNF-α and arthritis factor levels in the blood were measured (see FIGS. 7, 8 and 9; results obtained using PTD of SEQ ID NO: 2 are not shown in the drawings). In FIGS. 7, 8 and 9, N: normal mice; CT: mice having rheumatoid arthritis induced by injection of collagen; M1: the group injected intraperitoneally with MTX alone; M2: the group injected intraperitoneally with PTD-ACA-MTX; and M3: the group for which the ointment preparation containing the PTD-ACA-MTX conjugate was administered transdermally.

Sprague Dawley rats = test: Toxicity test by single subcutaneous administration to rats; assay type: in vivo, rat
Description: Toxicity by the single subcutaneous administration of PTD-ACA-MTX prepared in Example 1 was examined. Male and female Sprague Dawley rats (Samtako) were divided into an excipient control group administered with sterilized water for injection, and test groups administered with the inventive conjugate in amounts of 5, 50 and 500 mg/kg. Each of the animal groups consisted of 10 animals (five males and five females) and observed for mortality for 2 weeks, general symptoms, bodyweight change, and autopsy findings. All the test methods were performed according to toxicity test standards provided by the Korea Food and Drug Administration, and the test results are as follows.

beagle dogs = test: Toxicity test by single subcutaneous administration to beagle dogs; assay type: in vivo, dog
Description: Toxicity caused by single subcutaneous administration of the inventive conjugate was examined. Male and female beagle dogs were administered subcutaneously with the inventive conjugate in each of amounts of 4, 20 and 100 mg/kg. Each of the animal groups consisted of four animals (2 males and 2 females) and observed for mortality for 2 weeks, general symptoms, bodyweight change, and autopsy findings. All the test methods were performed according to toxicity test standards provided by the Korea Food and Drug Administration, and the test results are as follows.

[1] = tested on: New Zealand White rabbits; test: Skin irritation test in rabbits; assay type: in vivo, rabbit; details: healthy and scratch skin
Description: The skin irritability of the inventive conjugate was examined. The inventive conjugate was applied to the healthy skin and scratch skin of New Zealand White rabbits, which were then evaluated comparatively with the healthy skin and scratch skin to which the inventive conjugate had not been applied.

[2] = Prior enzyme test of PTD-MTX conjugate versus MTX alone; assay type: biochemical; details: prior enzyme test results
[3] = 500 mg/kg, male and female animals

**Q.** For CN(Cc1cnc2nc(N)nc(N)c2n1)c1ccc(C(=O)N[C@@H](CCC(=O)O)C(=O)O)cc1 [MTX alone, methotrexate, reference compound], which “cell proliferation-inhibitory effect (rank order)” value (HeCaT cell line) is on record?
**A.** followed by the MTX-PTD conjugate and the MTX alone in that order; also recorded: MTX alone <PTD-MTX<PTD-ACA-MTX

**Q.** For “PTD-ACA-MTX (YARVRRRGPRR; also: aminocaproic acid linker, methotrexate conjugate, position not given here)”, which “inflammatory cells which have penetrated inflammatory sites (tissue photographs)” value (DBA/1J mice; after treatment, H&E and M-T staining) is on record?
**A.** greatly decreased

**Q.** And the “amount of inflammation-mediating cytokine TNF-α” value (DBA/1J mice; blood, after 4 weeks of treatment)?
**A.** greatly decreased

**Q.** What about the “pharmacological effect in arthritis animal model” value (DBA/1J mice; group M3, transdermal ointment, compared with M2 (I.P. MTX-ACA-PTD) and M1 (I.P. MTX alone)) of the same compound?
**A.** substantially the same effect

**Q.** What about the autopsy findings (Sprague Dawley rats; 500 mg/kg, female animals) of the same compound?
**A.** splenomegaly was observed

**Q.** What about the “autopsy findings at the administration site” value (Sprague Dawley rats; [3]) of the same compound?
**A.** red fluid retention and incrustation

**Q.** And the general symptoms (Sprague Dawley rats; [3])?
**A.** congestion was observed starting from one day after the administration; also recorded: incrustation was observed starting from 2 days after the administration

**Q.** What about the general symptoms (Sprague Dawley rats; 500 mg/kg, male animals) of the same compound?
**A.** systemic edema was observed

**Q.** What about the bodyweight change (Sprague Dawley rats; 500 mg/kg, male animals, 3, 7 and 14 days after administration) of the same compound?
**A.** inhibition of an increase in bodyweight

**Q.** And the “mortality (animals killed by the test substance)” value (Sprague Dawley rats; 5, 50 and 500 mg/kg single s.c., 2 weeks)?
**A.** not observed

**Q.** And the general symptoms (Sprague Dawley rats; 4 days to 6 days after administration, group not clearly stated (500 mg/kg context))?
**A.** Diarrhea and soft feces were sporadically observed

**Q.** And the “minimum lethal dose (MLD)” value (Sprague Dawley rats; single subcutaneous administration, rats)?
**A.** more than 500 mg/kg

**Q.** And the bodyweight change (beagle dogs; 100 mg/kg, male and female animals, 3 days after administration)?
**A.** temporary inhibition of an increase in bodyweight

**Q.** And the general symptoms (beagle dogs; 100 mg/kg, males, anorexia 2 to 4 days, diarrhea 3 days after administration, listed as inventive conjugate)?
**A.** anorexia was observed; also recorded: diarrhea was observed

**Q.** What about the general symptoms (beagle dogs; 100 mg/kg, one male and female, starting from 1 hour after administration) of the same compound?
**A.** reduction in spontaneous motility was observed

**Q.** What about the autopsy findings (beagle dogs; 4, 20 and 100 mg/kg single s.c.) of the same compound?
**A.** abnormal findings were not observed

**Q.** What about the “mortality (animals killed by the test substance)” value (beagle dogs; 4, 20 and 100 mg/kg single s.c., 2 weeks) of the same compound?
**A.** No animal killed by the test substance was observed

**Q.** And the general symptoms (beagle dogs; groups with more than 20 mg/kg, males and females, 1 hour to 6 hours after administration)?
**A.** eyelid edema was observed

**Q.** And the general symptoms (beagle dogs; one male of 20 mg/kg group and one female of 100 mg/kg group)?
**A.** edema and a reduction in spontaneous motility were continued up to 2 days after administration

**Q.** And the minimum lethal dose (beagle dogs; single subcutaneous administration, beagle dogs, both males and females)?
**A.** over 100 mg/kg

**Q.** And the “cell proliferation-inhibitory effect (rank order)” value (HeCaT cell line)?
**A.** MTX alone <PTD-MTX<PTD-ACA-MTX

**Q.** And the “cell proliferation-inhibitory effect (rank order)” value (HeCaT cell line; listed as MTX-ACA-PTD conjugate)?
**A.** highest inhibitory effect

**Q.** What about the skin irritability classification [1] of the same compound?
**A.** non-irritating substance

**Q.** And the skin irritation index [1]?
**A.** zero

**Q.** For “PTD-MTX (YARVRRRGPRR-NH2; not fully specified (N-terminus); also: methotrexate conjugate)”, which “effect in enzyme test compared to MTX alone” value [2] is on record?
**A.** low effects compared to MTX alone

**Q.** What about the “cell proliferation-inhibitory effect (rank order)” value (HeCaT cell line) of the same compound?
**A.** MTX alone <PTD-MTX<PTD-ACA-MTX
